Laboratory results: paper PMC3162888

B1: AaSPVII (Aedes aegypti) (protein)
chain: VVGGYEVDVKDIPFQVSLQNTYGHFCGGSIISERWVLTAGHCASPRDHGLKVRVGSSQHASGGQLYKVAKIHQHPQYNPSTIDYDFCLLELEKAITFSEVSQSVDLPKLNDPVQDGTLLQVSGWGYTQNPSESRDVLRATNVPAVSQKECSRAYQGTNAVTDRMVCAGYKEGGKDSCQGDSGGPLVEGNTLVGVVSWGVGCAQAGYPGVYSRVAAVRDWVAEVSGV
B2: AaET (Aedes aegypti) (protein)
chain: IVGGFQIDIAEVPHQVSLQRSGRHFCGGSIISPRWVLTAAHCTTNTDPAAYTIRAGSTDRTNGGIIVKVKSVIPHPQYNGDTYNYDFSLLELDESIGFSRSIEAIALPEASETVADGAMCTVSGWGDTKNVFEMNTLLRAVNVPSYNQAECAAALVNVVPVTEQMICAGYAAGGKDSCQGDSGGPLVSGDKLVGVVSWGKGCALPNLPGVYARVSTVRQWIREVSEV

Substrate: N=C(N)NCCCC(NC(=O)c1ccccc1)C(=O)Nc1ccc([N+](=O)[O-])cc1
Assay: purified protein
Details: 20 mM TRIS-HCl, 10 mM CaCl2, pH 8.0, 24°C

| Protein | Km (50 nM enzyme) [µM] | kcat (50 nM enzyme) [s⁻¹] | kcat/Km (50 nM enzyme) [M⁻¹ s⁻¹] | Km (20 nM enzyme) [µM] | kcat (20 nM enzyme) [s⁻¹] | kcat/Km (20 nM enzyme) [M⁻¹ s⁻¹] |
| --- | --- | --- | --- | --- | --- | --- |
| B1 | 19.2 ± 1.0 | 0.35 | 18500 | – | – | – |
| B2 | – | – | – | 63.0 ± 1.3 | 2.03 | 32300 |
